For the experiment, the target named is proteoglycan-type receptor-type protein tyrosine phosphatase (PTP?), mouse (mouse) (UniProt B9EKR1). Put plainly: cell-based or functional assay.
UniProt B9EKR1, sequence (B9EKR1 25-2312): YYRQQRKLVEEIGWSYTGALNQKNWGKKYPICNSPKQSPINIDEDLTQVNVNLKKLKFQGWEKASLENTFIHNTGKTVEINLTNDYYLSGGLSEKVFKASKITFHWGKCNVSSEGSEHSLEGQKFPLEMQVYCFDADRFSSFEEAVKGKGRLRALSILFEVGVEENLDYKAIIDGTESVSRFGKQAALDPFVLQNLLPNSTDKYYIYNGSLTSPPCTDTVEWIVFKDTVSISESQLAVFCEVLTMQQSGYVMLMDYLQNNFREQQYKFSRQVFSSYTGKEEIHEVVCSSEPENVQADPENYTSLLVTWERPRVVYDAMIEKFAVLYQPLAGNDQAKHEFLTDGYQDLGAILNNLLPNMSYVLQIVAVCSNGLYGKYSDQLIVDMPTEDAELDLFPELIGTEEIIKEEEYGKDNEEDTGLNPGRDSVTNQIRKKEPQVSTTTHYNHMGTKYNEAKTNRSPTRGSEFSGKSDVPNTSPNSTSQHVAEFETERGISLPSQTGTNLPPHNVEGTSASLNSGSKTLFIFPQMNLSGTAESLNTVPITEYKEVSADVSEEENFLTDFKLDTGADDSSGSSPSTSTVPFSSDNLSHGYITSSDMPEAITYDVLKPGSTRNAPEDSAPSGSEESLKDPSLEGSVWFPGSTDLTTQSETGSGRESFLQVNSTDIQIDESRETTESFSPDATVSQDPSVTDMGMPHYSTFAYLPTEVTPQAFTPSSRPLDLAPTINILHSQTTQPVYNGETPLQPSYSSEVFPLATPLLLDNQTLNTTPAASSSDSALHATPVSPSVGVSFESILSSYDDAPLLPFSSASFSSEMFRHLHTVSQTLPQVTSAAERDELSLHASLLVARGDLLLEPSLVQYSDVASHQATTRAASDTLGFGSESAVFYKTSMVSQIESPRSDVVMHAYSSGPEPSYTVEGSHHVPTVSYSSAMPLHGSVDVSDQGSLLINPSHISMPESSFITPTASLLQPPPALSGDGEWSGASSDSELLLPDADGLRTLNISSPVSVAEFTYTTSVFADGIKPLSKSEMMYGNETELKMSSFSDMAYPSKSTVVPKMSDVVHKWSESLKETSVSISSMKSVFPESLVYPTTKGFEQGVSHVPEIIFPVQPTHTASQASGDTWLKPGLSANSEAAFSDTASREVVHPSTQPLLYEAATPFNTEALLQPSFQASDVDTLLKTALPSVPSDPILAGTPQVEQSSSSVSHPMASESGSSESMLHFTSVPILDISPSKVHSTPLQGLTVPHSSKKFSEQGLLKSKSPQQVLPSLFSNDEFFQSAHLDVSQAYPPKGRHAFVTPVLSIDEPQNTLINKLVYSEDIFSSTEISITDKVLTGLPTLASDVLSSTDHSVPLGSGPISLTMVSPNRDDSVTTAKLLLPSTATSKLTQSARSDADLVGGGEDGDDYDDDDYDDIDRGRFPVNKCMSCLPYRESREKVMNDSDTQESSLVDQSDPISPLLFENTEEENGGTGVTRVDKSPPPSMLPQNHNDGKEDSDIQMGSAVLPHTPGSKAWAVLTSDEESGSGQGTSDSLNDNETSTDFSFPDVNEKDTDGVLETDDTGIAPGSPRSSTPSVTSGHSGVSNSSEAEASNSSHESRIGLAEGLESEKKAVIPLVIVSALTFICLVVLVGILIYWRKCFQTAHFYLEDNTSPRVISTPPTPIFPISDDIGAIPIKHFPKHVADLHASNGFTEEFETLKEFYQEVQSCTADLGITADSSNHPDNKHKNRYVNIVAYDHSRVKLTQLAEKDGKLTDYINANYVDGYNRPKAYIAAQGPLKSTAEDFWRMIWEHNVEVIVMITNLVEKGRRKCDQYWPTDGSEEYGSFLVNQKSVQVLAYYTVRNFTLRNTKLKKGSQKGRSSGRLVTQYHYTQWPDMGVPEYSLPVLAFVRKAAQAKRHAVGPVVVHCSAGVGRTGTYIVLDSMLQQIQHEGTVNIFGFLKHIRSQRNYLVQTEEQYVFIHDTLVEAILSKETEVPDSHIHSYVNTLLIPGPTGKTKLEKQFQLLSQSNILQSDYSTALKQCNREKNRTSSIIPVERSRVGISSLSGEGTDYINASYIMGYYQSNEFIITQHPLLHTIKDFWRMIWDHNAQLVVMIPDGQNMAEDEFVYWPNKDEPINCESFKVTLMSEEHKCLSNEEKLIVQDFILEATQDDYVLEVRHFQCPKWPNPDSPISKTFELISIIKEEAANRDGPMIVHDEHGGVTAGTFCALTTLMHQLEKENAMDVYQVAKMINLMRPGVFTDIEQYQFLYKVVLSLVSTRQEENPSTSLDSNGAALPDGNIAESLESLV

Take “VacA, a toxin of Helicobacter pylori (ligand)”: the epithelial damage score (EDS), wild-type (PTP?+/+) mice, VacA 0.125 mg/kg (score (scale 1-4)) came to 1.8; the epithelial damage score (EDS), wild-type (PTP?+/+) mice, VacA 0.250 mg/kg (score (scale 1-4)) amounted to 2.2; the inflammation score (IS), wild-type (PTP?+/+) mice, VacA 0.125 mg/kg (score (scale 1-4)) turned out to be 1.4; the inflammation score (IS), wild-type (PTP?+/+) mice, VacA 0.250 mg/kg (score (scale 1-4)) came out at 1.4.

These data come from patent US20030186284A1.
